Numbering of substitutions follows the chain as printed. Numbers in names are those of the source. Blank lines part the entries; values can stand above or below the binder they belong to.
What was measured:
[1] = biological target: T1, CD3 on primary human pan T cells (human, UniProt P07766 23-207); experiment: flow cytometry, pan T-cells
T1 construct: on cells it stands in the TCR/CD3 complex; also called Pan T-cells (CD3-positive); endogenous CD3

[2] = biological target: T2, TRCW5 antigen (CD3δε-Fc-Avi) (biotinylated (site not stated)); experiment: ELISA after heat
T2 construct: also called recombinant CD3

[3] = biological target: T2, TRCW5 antigen (CD3δε-Fc-Avi); experiment: ELISA
[4] = biological target: T2, TRCW5 antigen (CD3δε-Fc-Avi); experiment: binding after heat
[5] = biological target: T3, Human CD3 epsilon (CD3ε), on primary human pan T cells (human, UniProt P07766 23-207); experiment: flow cytometry on human T cells, anti-human IgG Fc A647 detection
T3 construct: Endogenous CD3 in the TCR complex on T cells; also called T-cell surface glycoprotein CD3 epsilon chain; T3E
Method: The bsAbs were assayed for their abilities bind T cells and to induce T-cell mediated cytotoxicity against H929 cells (ATCC@CRL-9068™). […] Stain buffer with no antibody was added to bottom 4 wells and assign as background control (secondary antibody alone). Parental Cris7b, CD3B695 (bivalent mAb controls) and CD3B375 (bsAb which was monovalent for Cris-7b) were added also with full dose-response curves.
Frozen T-cells were thawed in a 37° C. water bath and transferred gently into conical tube containing warm 5 mL media (RPMI+10% FBS)/1 vial of 1×10⁶ cells. Cells were mixed and centrifuged for 5 minutes at 400×g followed by resuspension in flow staining buffer, and counted and viability checked. Cells were then plated in 50 uL/50,000 cells/well into assay plates. Assay positive control mAb was added in the first column in quadruplicates at 2× at 20 nM in the bottom 4 wells. Stain buffer with no mAb was added to the top 4 wells and assigned as background controls (secondary antibody alone). Serially diluted antibody samples were added at 50 uL/well using Intergra Viaflo according to the attached plate maps and incubated for 1 hr at 37° C. After one hour incubation, 150 uL staining buffer were added to all wells, and cells were spun at 500×g for 5 minutes to pellet cells. Cells were then washed prior to addition of Alexa Fluor 647 (A647) conjugated anti human IgG Fc specific secondary detection antibody at 2 ug/mL in staining buffer. Secondary detection antibody was added at 50 uL/well to the washed cells. Plates were covered with foil and incubated for 30 minutes on ice or in the fridge. 150 uL staining buffer were added to all wells, and cells were spun at 500×g for 5 min to pellet cells. Cells were resuspended in 20 uL running buffer containing 1:1000 dilution of SYTOX™ green dead cell stain and run plates on iQue® Screener flow cytometer (Essen BioScience, Inc.). Briefly, cells were gated on FCS vs. SCS dot plot to eliminate debris. Singlets were gated on SCS-A vs SCS-H dot plot and from singlet population, live cells gated choosing BL1 channel for low/negative with SYTOX™ green viability stain (Thermo Fisher).

T1 sequence (P07766 23-207 limits assumed): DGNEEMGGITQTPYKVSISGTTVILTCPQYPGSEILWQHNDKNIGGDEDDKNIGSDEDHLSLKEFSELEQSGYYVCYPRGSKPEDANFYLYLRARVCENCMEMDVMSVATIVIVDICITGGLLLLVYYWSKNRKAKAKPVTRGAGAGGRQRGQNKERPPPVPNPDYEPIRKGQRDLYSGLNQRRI
T3 sequence (P07766 23-207 limits assumed): as above
T2 sequence (chain, as listed by the source mutant limits assumed): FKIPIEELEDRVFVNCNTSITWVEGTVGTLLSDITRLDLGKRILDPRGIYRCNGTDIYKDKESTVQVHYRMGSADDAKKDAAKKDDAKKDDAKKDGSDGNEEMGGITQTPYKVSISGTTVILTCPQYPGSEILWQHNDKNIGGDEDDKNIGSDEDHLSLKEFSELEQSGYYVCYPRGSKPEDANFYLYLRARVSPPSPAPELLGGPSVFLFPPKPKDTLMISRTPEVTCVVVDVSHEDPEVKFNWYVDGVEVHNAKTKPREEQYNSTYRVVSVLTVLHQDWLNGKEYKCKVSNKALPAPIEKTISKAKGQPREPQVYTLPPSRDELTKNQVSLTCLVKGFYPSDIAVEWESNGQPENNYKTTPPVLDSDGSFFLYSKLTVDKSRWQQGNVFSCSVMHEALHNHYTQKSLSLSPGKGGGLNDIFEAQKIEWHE

B4: CD3B2051 N106V (scFv)
scFv: QVQLVQSGAEVKKPGSSVKVSCKASGYTFTRSTMHWVKQAPGQGLEWMGYINPSSAYTNYNQKFQGRVTLTADKSTSTAYMELSSLRSEDTAVYYCASPQVHYDYVGFPYWGQGTLVTVSSGGSEGKSSGSGSESKSTGGSEIVLTQSPATLSASPGERVTLSCSASSSVSYMNWYQQKPGQAPRRLIYDSSKLASGVPARFSGSGSGRDYTLTISSLEPEDFAVYYCQQWSRNPPTFGGGTKVEIK
EC50 [3]: 15.2 nM | % Retained 55° C. [4]: 54.9% | % Retained 60° C. [4]: 1.4% | % Retained 65° C. [4]: 0.7%

B6: CD3B2089 N106S (scFv)
scFv: B4 scFv with K38R, N61A, V106S, L187W
EC50 [3]: 10 nM | % Retained 55° C. [4]: 102% | % Retained 60° C. [4]: 90.2% | % Retained 65° C. [4]: 5.4%

B7: CD3B2089 N106T (scFv)
scFv: B4 scFv with K38R, N61A, V106T, L187W
EC50 [3]: 11.1 nM | % Retained 55° C. [4]: 108% | % Retained 60° C. [4]: 76.7% | % Retained 65° C. [4]: 1.4%

B9: CD3B2089 N106E (scFv)
scFv: B4 scFv with K38R, N61A, V106E, L187W
EC50 [3]: 10.3 nM | % Retained 55° C. [4]: 113% | % Retained 60° C. [4]: 108% | % Retained 65° C. [4]: 33.2%

B12: BC3B102 (bispecific antibody, human IgG1, kappa, L234A L235A)
chain: QVQLVQSGAEVKKPGSSVKVSCKASGYTFTRSTMHWVKQAPGQGLEWIGYINPSSAYTNYNQKFQGRVTLTADKSTSTAYMELSSLRSEDTAVYYCASPQVHYDYNGFPYWGQGTLVTVSSGGSEGKSSGSGSESKSTGGSEIVLTQSPATLSASPGERVTLSCSASSSVSYMNWYQQKPGQAPRRWIYDSSKLASGVPARFSGSGSGRDYTLTISSLEPEDFAVYYCQQWSRNPPTFGGGTKVEIKEPKSSDKTHTCPPCPAPEAAGGPSVFLFPPKPKDTLMISRTPEVTCVVVSVSHEDPEVKFNWYVDGVEVHNAKTKPREEQYNSTYRVVSVLTVLHQDWLNGKEYKCKVSNKALPAPIEKTISKAKGQPREPQVYVYPPSREEMTKNQVSLTCLVKGFYPSDIAVEWESNGQPENNYKTTPPVLDSDGSFALVSKLTVDKSRWQQGNVFSCSVMHEALHNHYTQKSLSLSPG
heavy: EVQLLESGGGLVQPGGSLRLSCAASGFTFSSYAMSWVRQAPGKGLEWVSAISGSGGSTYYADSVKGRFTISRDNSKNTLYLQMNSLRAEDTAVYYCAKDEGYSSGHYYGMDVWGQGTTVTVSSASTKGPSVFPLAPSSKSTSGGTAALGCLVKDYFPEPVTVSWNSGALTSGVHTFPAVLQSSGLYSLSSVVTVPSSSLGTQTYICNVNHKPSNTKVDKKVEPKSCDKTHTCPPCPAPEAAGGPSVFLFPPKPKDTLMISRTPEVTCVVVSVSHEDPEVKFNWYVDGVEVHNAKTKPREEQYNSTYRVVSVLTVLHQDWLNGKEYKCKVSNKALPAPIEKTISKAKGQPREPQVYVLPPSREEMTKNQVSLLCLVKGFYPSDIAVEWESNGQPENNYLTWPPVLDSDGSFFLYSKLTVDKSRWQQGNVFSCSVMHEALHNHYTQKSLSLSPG
light: EIVLTQSPGTLSLSPGERATLSCRASQSISSSFLTWYQQKPGQAPRLLIYGASSRATGIPDRFSGGGSGTDFTLTISRLEPEDFAVYYCQHYGSSPMYTFGQGTKLEIKRTVAAPSVFIFPPSDEQLKSGTASVVCLLNNFYPREAKVQWKVDNALQSGNSQESVTEQDSKDSTYSLSSTLTLSKADYEKHKVYACEVTHQGLSSPVTKSFNRGEC
notes: IgG1 BCMAxCD3; HC1: CD3B2030 HL scFv-Fc; also called BC3B102.001; B2030 HL
EC50 [5]: 3 nM

B13: BC3B116 (bispecific antibody, human IgG1, kappa, L234A L235A)
chain: EIVLTQSPATLSASPGERVTLSCSASSSVSYMNWYQQKPGQAPRRWIYDSSKLASGVPARFSGSGSGRDYTLTISSLEPEDFAVYYCQQWSRNPPTFGGGTKVEIKGGSEGKSSGSGSESKSTGGSQVQLVQSGAEVKKPGSSVKVSCKASGYTFTRSTMHWVKQAPGQGLEWIGYINPSSAYTNYNQKFQGRVTLTADKSTSTAYMELSSLRSEDTAVYYCASPQVHYDYNGFPYWGQGTLVTVSSEPKSSDKTHTCPPCPAPEAAGGPSVFLFPPKPKDTLMISRTPEVTCVVVSVSHEDPEVKFNWYVDGVEVHNAKTKPREEQYNSTYRVVSVLTVLHQDWLNGKEYKCKVSNKALPAPIEKTISKAKGQPREPQVYVYPPSREEMTKNQVSLTCLVKGFYPSDIAVEWESNGQPENNYKTTPPVLDSDGSFALVSKLTVDKSRWQQGNVFSCSVMHEALHNHYTQKSLSLSPG
heavy: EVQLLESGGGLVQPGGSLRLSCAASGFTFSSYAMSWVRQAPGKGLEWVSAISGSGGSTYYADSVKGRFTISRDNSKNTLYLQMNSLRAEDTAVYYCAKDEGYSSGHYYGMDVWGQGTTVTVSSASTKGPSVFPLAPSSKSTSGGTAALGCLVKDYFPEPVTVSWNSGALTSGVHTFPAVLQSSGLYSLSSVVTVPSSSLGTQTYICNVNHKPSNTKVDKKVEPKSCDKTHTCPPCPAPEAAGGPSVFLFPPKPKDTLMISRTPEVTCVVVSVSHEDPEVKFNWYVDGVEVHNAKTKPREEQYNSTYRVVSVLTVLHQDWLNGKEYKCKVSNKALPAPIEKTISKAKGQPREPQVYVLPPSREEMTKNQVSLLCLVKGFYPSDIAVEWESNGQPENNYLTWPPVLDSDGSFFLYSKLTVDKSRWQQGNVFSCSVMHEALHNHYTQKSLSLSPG
light: B12 light
notes: IgG1 BCMAxCD3; HC1: CD3B2030 LH scFv-Fc; also called BC3B116.001; B2030 LH
EC50 [5]: 21.8 nM

B14: BC3B124 (bispecific antibody, human IgG1, kappa, L234A L235A)
chain: B13 chain with W46L, I174M, N232S
heavy: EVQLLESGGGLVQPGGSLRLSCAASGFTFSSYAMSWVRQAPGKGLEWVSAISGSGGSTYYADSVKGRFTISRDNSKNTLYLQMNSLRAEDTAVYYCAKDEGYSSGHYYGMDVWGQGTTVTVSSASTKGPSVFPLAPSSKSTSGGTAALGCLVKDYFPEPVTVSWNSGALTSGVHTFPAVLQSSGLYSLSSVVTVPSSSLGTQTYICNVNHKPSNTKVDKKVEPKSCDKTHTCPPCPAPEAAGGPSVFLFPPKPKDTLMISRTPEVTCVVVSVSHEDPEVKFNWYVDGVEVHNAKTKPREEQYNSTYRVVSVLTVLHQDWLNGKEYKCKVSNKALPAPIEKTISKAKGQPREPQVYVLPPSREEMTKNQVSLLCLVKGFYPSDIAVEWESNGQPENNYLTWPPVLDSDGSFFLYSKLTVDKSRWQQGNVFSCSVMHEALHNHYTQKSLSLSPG
light: B12 light
notes: IgG1 BCMAxCD3; HC1: CD3B2051-N106S LH scFv-Fc; also called BC3B124.001; B2051 LH NtoS
EC50 [5]: 300 nM

B15: BC3B125 (bispecific antibody, human IgG1, kappa, L234A L235A)
chain: B13 chain with K164R, I174M, N187A
heavy: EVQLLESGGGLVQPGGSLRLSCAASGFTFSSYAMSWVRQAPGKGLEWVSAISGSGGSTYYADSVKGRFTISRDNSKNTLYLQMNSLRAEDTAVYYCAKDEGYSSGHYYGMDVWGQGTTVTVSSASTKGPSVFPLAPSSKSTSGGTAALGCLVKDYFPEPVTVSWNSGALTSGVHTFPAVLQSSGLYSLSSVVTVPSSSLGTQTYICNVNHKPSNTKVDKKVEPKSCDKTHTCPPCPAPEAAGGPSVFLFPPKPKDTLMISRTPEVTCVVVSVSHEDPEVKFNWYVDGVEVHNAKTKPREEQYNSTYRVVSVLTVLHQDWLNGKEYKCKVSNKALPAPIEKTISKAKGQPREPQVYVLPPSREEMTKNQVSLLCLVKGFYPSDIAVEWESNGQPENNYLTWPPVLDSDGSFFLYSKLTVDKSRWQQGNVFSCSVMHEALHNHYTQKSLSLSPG
light: B12 light
notes: IgG1 BCMAxCD3; HC1: CD3B2089 LH scFv-Fc; also called BC3B125.001; B2089 LH
EC50 [5]: 36.9 nM

B19: BC3B111 (bispecific antibody, human IgG1, kappa, L234A L235A)
chain: B12 chain with K38R, I48M, N61A
heavy: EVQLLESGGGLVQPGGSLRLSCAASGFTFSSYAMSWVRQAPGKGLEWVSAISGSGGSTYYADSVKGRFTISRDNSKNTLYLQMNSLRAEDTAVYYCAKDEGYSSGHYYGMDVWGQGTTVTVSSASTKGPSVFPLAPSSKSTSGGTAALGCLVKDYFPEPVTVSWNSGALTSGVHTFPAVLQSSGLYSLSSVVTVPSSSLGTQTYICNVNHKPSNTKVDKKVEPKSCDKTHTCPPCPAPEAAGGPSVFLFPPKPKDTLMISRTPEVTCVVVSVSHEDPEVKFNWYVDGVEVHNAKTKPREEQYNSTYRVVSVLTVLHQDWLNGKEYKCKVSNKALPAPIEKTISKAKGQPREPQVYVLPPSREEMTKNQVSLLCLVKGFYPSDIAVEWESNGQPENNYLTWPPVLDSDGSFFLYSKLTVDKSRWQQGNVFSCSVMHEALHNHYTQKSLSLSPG
light: B12 light
notes: IgG1 BCMAxCD3; HC1: CD3B2089 HL scFv-Fc; also called BC3B111.001; B2089 HL
EC50 [5]: 6.4 nM

Next, values leading:

% Binding retained on T-cells, 55° C. [1]: 1.05 fraction | % Binding retained on T-cells, 60° C. [1]: 1.1 fraction | % Binding retained on T-cells, 65° C. [1]: 0.757 fraction | % Binding retained on T-cells, RT [1]: 1 fraction | % Retained 55° C. [2]: 106% | % Retained 60° C. [2]: 101% | % Retained 65° C. [2]: 36% | EC50 [3]: 8.84 nM | % Retained 55° C. [4]: 104% | % Retained 60° C. [4]: 102% | % Retained 65° C. [4]: 41.3%
B1: CD3B2030 (scFv)
scFv: B4 scFv with M48I, V106N, L187W

% Retained 55° C. [2]: 109% | % Retained 60° C. [2]: 94% | % Retained 65° C. [2]: 32% | EC50 [3]: 8.73 nM | % Retained 55° C. [4]: 104% | % Retained 60° C. [4]: 95% | % Retained 65° C. [4]: 10.9%
B2: CD3B2051 (scFv)
scFv: B4 scFv with V106N

% Binding retained on T-cells, 55° C. [1]: 1.08 fraction | % Binding retained on T-cells, 60° C. [1]: 0.494 fraction | % Binding retained on T-cells, 65° C. [1]: 0.111 fraction | % Binding retained on T-cells, RT [1]: 1 fraction | % Retained 55° C. [2]: 111% | % Retained 60° C. [2]: 108% | % Retained 65° C. [2]: 41% | EC50 [3]: 8.79 nM | % Retained 55° C. [4]: 104% | % Retained 60° C. [4]: 109% | % Retained 65° C. [4]: 15.1%
B3: CD3B2089 (scFv)
scFv: B4 scFv with K38R, N61A, V106N, L187W

EC50 [3]: 10.1 nM | % Retained 55° C. [4]: 113% | % Retained 60° C. [4]: 101% | % Retained 65° C. [4]: 36.2%
B5: CD3B2089 N106F (scFv)
scFv: B4 scFv with K38R, N61A, V106F, L187W

% Retained 55° C. [2]: 111% | % Retained 60° C. [2]: 105% | % Retained 65° C. [2]: 55% | EC50 [3]: 10 nM | % Retained 55° C. [4]: 110% | % Retained 60° C. [4]: 97.5% | % Retained 65° C. [4]: 72.3%
B8: CD3B2030 N106Q (scFv)
scFv: B4 scFv with M48I, V106Q, L187W
notes: also called CD3B2030 NtoQ

EC50 [3]: 17.9 nM | % Retained 55° C. [4]: 40.6% | % Retained 60° C. [4]: 2.5% | % Retained 65° C. [4]: 0.9%
B10: CD3B2089 N106I (scFv)
scFv: B4 scFv with K38R, N61A, V106I, L187W

EC50 [3]: 11.2 nM | % Retained 55° C. [4]: 102% | % Retained 60° C. [4]: 103% | % Retained 65° C. [4]: 60.4%
B11: CD3B2089 N106R (scFv)
scFv: B4 scFv with K38R, N61A, V106R, L187W

EC50 [5]: 100 nM
B16: BC3B120 (bispecific antibody, human IgG1, kappa, L234A L235A)
chain: B13 chain with W46L, I174M
heavy: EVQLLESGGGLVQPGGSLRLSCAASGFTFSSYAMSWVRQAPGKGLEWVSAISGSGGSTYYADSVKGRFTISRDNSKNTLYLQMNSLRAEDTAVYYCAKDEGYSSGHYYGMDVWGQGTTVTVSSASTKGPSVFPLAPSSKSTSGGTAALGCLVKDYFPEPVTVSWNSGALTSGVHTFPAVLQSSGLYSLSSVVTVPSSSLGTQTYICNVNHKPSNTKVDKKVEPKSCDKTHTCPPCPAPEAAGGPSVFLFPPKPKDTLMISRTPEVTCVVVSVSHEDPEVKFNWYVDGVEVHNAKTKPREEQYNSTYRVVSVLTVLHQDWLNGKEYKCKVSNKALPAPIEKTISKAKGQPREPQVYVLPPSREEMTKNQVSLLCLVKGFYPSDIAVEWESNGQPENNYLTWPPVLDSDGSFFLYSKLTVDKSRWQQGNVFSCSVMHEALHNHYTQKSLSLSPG
light: B12 light
notes: IgG1 BCMAxCD3; HC1: CD3B2051 LH scFv-Fc; also called BC3B120.001; B2051 LH

EC50 [5]: ≥ 300 nM
B17: BC3B112 (bispecific antibody, human IgG1, kappa, L234A L235A)
chain: B12 chain with K38R, I48M, N61A, N106A
heavy: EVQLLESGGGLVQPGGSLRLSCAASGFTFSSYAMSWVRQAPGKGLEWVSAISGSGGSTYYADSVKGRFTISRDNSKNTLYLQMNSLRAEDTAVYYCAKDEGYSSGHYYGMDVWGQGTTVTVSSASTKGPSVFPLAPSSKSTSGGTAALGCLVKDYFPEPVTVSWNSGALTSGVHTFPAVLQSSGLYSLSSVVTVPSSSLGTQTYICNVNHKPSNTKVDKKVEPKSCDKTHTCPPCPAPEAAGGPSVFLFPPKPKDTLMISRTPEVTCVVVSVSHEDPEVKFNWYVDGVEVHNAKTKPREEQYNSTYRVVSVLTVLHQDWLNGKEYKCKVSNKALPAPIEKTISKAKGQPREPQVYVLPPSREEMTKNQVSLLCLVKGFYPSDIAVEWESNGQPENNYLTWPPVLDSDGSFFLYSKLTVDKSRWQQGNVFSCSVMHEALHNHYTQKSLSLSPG
light: B12 light
notes: IgG1 BCMAxCD3; HC1: CD3B2089-N106A HL scFv-Fc; also called BC3B112.001; B2089 HL NtoA

EC50 [5]: 6.8 nM
B18: BC3B106 (bispecific antibody, human IgG1, kappa, L234A L235A)
chain: B12 chain with I48M, W187L
heavy: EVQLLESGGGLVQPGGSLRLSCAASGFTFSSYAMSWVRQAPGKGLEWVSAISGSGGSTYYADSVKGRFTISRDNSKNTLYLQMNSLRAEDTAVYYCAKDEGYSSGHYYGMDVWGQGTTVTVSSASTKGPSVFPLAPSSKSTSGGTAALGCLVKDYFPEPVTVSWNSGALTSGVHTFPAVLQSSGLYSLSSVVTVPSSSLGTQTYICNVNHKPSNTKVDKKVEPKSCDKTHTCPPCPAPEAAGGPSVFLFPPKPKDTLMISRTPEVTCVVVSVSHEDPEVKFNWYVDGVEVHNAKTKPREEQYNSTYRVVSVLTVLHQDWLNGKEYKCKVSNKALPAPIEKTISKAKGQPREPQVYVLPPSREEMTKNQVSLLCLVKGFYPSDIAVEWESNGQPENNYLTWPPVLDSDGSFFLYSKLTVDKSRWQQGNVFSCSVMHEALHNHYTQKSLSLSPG
light: B12 light
notes: IgG1 BCMAxCD3; HC1: CD3B2051 HL scFv-Fc; also called BC3B106.001; B2051 HL

— patent US20250145711A1 (Janssen / Centocor, published 2025)
